{"source": "the RNAGym collection of RNA variant scans (doi:10.7554/elife.80360)", "parents": {"B1": {"name": "HDV Ribozyme (parent)", "chain": "GGCCGGCAUGGUCCCAGCCUCCUCGCUGGCGCCGGCUGGGCAACAUUCCGAGGGGACCGUCCCCUCGGUAAUGGCGAAUGGGACCCA"}}}
{"variants_of": "B1", "test": "self-cleavage, relative activity (ratio to wild type); higher = more cleavage; co-transcriptional"}
{"variant": "GGCCGGCAUGGUCCCAGCCUCCUCGCUGGCGCCGGCUGGGCAUCAUUCCGAGGGGACCGUCCCCUCGGUAAUGGCGAAUCGGACCCA", "note": "[A43U G80C]", "self-cleavage": 0.115}
{"variant": "GGCCGGCAUGGGCCCAGCCUCCUCGCUGGCGCCGGCUGGGCAACAUUCCGAGGGGACCGUACCCUCGGUAAUGGCGAAUGGGACCCA", "note": "[U12G C61A]", "self-cleavage": 0.798}
{"variant": "GGCAGGCAUGGUCCCAGCCUCCUCGCUGGCGCCGGCUGGGCAACAUUCCGAGGGAACCGUCCCCUCGGUAAUGGCGAAUGGGACCCA", "note": "[C4A G55A]", "self-cleavage": 0.3}
{"variant": "GGCCGGCAUGGUCCCAGCAUCCUCGCUGGCGCCGGCUGGGCAACAUUCCGAGGGGACCGUCCCCUCGGUAAUGGCGAAGGGGACCCA", "note": "[C19A U79G]", "self-cleavage": 0.0923}
{"variant": "GGCGGGCAUGGUCCCAGCCUCCUCGCUGGCGCCGGCUGGGCAACAUUCCGAGGGGACCGGCCCCUCGGUAAUGGCGAAUGGGACCCA", "note": "[C4G U60G]", "self-cleavage": 0.213}
{"variant": "GGCCGGCAUGGUCCCAGCCUCCUCGCUGGCGCCGGCUGGGCAACAUUCCGAGGGGACCGUUCCCUCGGUAAUGGCGACUGGGACCCA", "note": "[C61U A78C]", "self-cleavage": 0.182}
{"variant": "GGCCGGCAUGGUCCCAGCCUCCUCGCUGGAGCCAGCUGGGCAACAUUCCGAGGGGACCGUCCCCUCGGUAAUGGCGAAUGGGACCCA", "note": "[C30A G34A]", "self-cleavage": 0.0801}
{"variant": "GGCCGGCAUGGUGCCAGCCUCCUCGCUGGCGCCGGCUGGGCAACAUUCCGAGGGGACCGUCCCCUCGGUAAUGGCGAAUGAGACCCA", "note": "[C13G G81A]", "self-cleavage": 0.0426}
{"variant": "GGCCUGCAUGGUCCCAGCCUCCUCGCUGCCGCCGGCUGGGCAACAUUCCGAGGGGACCGUCCCCUCGGUAAUGGCGAAUGGGACCCA", "note": "[G5U G29C]", "self-cleavage": 0}
{"variant": "GGCCGGCAUGGUUCCAGCCUCCUCGCUGGCGCCGGCUGGGCAACAUUCCGAGGGGACCGUCCCCUCGGUAAUGGCGAAUGGGAACCA", "note": "[C13U C84A]", "self-cleavage": 0.911}
{"variant": "GGCCGGCAUGGUCCUAGCCUCCUCGCGGGCGCCGGCUGGGCAACAUUCCGAGGGGACCGUCCCCUCGGUAAUGGCGAAUGGGACCCA", "note": "[C15U U27G]", "self-cleavage": 0.511}
{"variant": "GGCCGGCAUGAUCCCAGCCUCCUCGCUGGCGCCGGCUGGGAAACAUUCCGAGGGGACCGUCCCCUCGGUAAUGGCGAAUGGGACCCA", "note": "[G11A C41A]", "self-cleavage": 0.381}
{"variant": "GGCCGGCAUGGUCCCAGCCUCCUCGCUGGCGCCGGCUGGGCAACAUUCCGAGGGGACUGUCCCCUCGGUAAUGGCGAAUGGGACCGA", "note": "[C58U C86G]", "self-cleavage": 0.895}
{"variant": "GGCCGGCAUGGUCCCAGCCUCCUCGCUGGCGCCGGCUGGGCAACAUUCCGAGGGGACCGCCCCCUCGGUCAUGGCGAAUGGGACCCA", "note": "[U60C A70C]", "self-cleavage": 1.04}
{"variant": "GGCCGGCAUGGUCCCAGCCUCCUCGCUGGCGUCGGCUGGGCAACAUUCCGAGGGGACCGUCCCCUGGGUAAUGGCGAAUGGGACCCA", "note": "[C32U C66G]", "self-cleavage": 0.739}
{"variant": "GGCCGGCAUGGUCCCAGCCUCCUCGCUGGCGCCGGCUGGGCAACAUUCCGAGGGGACCGUCCCCUCGGUAAAGGCGAAUGGGACCCG", "note": "[U72A A87G]", "self-cleavage": 0.452}
{"variant": "GGCCGGCAUGGUCCCAGCCUCCUCGCUGGCGCCGGCUGGGCAACAUUCCGAGGGGACCGUCCCCUCGGUAAUGGCGAAUAGGACCCC", "note": "[G80A A87C]", "self-cleavage": 0.33}
{"variant": "GGCCGGCAUGGUCCCAGCCUCCUCGCUGGCGCCGGCUGGGCAACAUUCGGAGGGGACCGUCCCCUCGGUAAUGGCGAAUGCGACCCA", "note": "[C49G G81C]", "self-cleavage": 0.196}
{"variant": "GGCCGGCAUGGUCCCAGCCUCCUCGCUGGCGCCGGCUGGGCAAGAUUCCGAGGGGACCGUCCCCUCGGUAAUGGCGAAUGGGCCCCA", "note": "[C44G A83C]", "self-cleavage": 0.284}
{"variant": "GGCCGGCAUGGUCCCAGCCUCCUCGCUGCCGCCGGCUGGGCAACAUUCCGAGGGGACCGUCCACUCGGUAAUGGCGAAUGGGACCCA", "note": "[G29C C63A]", "self-cleavage": 0.117}
{"variant": "GGCCGGCAUGGUCCCAGCCUCCUCGCUGGCGCCGGCUGGGCAACAUUCCGAGGGGACCGUCACCUCGGUAAUGGCGAAUGGGACCAA", "note": "[C62A C86A]", "self-cleavage": 1.01}
{"variant": "GGCCGGCAUGGUCCCAGCCUCCUUGCUGGCGCCGGCUGGGCAACAUUCCGAGGGGACCGUACCCUCGGUAAUGGCGAAUGGGACCCA", "note": "[C24U C61A]", "self-cleavage": 0.591}
{"variant": "GGCCGGCAUGGUCCCAGCCUCCUCGCUGGCGCCGGCUGGGCAACAUUCCGAGGGGACCGUCCCCUCGGUAAUGUCGAAUGGGACACA", "note": "[G74U C85A]", "self-cleavage": 0.415}
{"variant": "GGCCGGCAUGGUCCCAGCCUCCUCGCUGGCGCCGGCUGGGCAACAUUCCGAGGGGACCGUCCCCUCGGUAAUAGCGAAUGGGACCCA", "note": "[G73A]", "self-cleavage": 0.691}
{"variant": "GACCGGCAUCGUCCCAGCCUCCUCGCUGGCGCCGGCUGGGCAACAUUCCGAGGGGACCGUCCCCUCGGUAAUGGCGAAUGGGACCCA", "note": "[G2A G10C]", "self-cleavage": 0.105}
{"variant": "GGCCGGCAUGGUCCCAGCCUCCUCGCUCGCGCCUGCUGGGCAACAUUCCGAGGGGACCGUCCCCUCGGUAAUGGCGAAUGGGACCCA", "note": "[G28C G34U]", "self-cleavage": 0.0386}
{"variant": "GGCCGGCAUGGUCCCAGCCUCCUCGCUGGCGCGGGCUGGGCAACAUUCCGAGGGGACCGUCCCCUCGGUAAUGGCGAAUGAGACCCA", "note": "[C33G G81A]", "self-cleavage": 0.128}
{"variant": "GGCCGGCAUGGUCCCAGCAUCCUCGCUGGCGCCGGCUGGGCAACAUUCCGAGGGGACCGUCCCCUCGGUAUUGGCGAAUGGGACCCA", "note": "[C19A A71U]", "self-cleavage": 0.0978}
{"variant": "GGCCGGCAUGGUCCCAGCCUCCUCGCUGGCGCCGGCUGGGAAACAUUCCGAGGGGACCGUCCCCUUGGUAAUGGCGAAUGGGACCCA", "note": "[C41A C66U]", "self-cleavage": 0.9}
{"variant": "GGCCGGCAUUGUCCCAGCCUCCUCGCUGGCGCCGGCUGGGCAACAUUCCGAGGGGGCCGUCCCCUCGGUAAUGGCGAAUGGGACCCA", "note": "[G10U A56G]", "self-cleavage": 0.689}
{"variant": "GGCCGGAAUGGUCCCAGCCUCCUCGCUGGCGCCGGCUGGGCAACAUUCCGAGGGGACCGUCCCCCCGGUAAUGGCGAAUGGGACCCA", "note": "[C7A U65C]", "self-cleavage": 0.522}
{"variant": "GGCCGGCAUGGUCCCAGCCUCCUCGCUGGCGCCGGCUGGGCAACAUUCCGAGGGGACCGGCCCCUCGGUAAUGGCGAAUGGGACCAA", "note": "[U60G C86A]", "self-cleavage": 1.01}
